Data from patent US10577406B2, “FKBP-L polypeptides and uses in angiogenesis-mediated disorders” (ALMAC DISCOVERY LIMITED, priority 2006, dated 2020).

Tested on: migrating HMEC-1
Test: immunohistochemical analysis of cytoskeletal morphology (anti-tubulin, anti-vimentin, confocal microscopy)
Assay type: cell-based, Human
Details: 750 ngml^−1; 5 hours after wounding
Procedure: Immunohistochemical analysis was carried out to assess cytoskeletal morphology upon treatment with FKBP-L by staining for tubulin and vimentin. HMEC-1 were seeded in four well chamber slides and incubtated overnight until confluent monolayers had formed. Media was removed from each well and the monolayer wounded as previously described. The cells were re-supplemented with medium containing 750 ngml^−1 recombinant His-tagged FKBP-L protein (i.e., SEQ ID NO: 1). The cells were incubated for 5 hours and the chambers were removed from the slides and the cells washed four times in PBS followed by fixation in 4% PBS buffered paraformaldehyde treated with 0.1% Triton X for 20 minutes. The cells were washed three times in PBS, and blocked for 20 minutes in 2% BSA containing 0.1% Triton X. Blocked cells were washed in PBS and incubated with one of the following monoclonal primary antibodies: (A) anti α tubulin (1:500); and (B) anti-vimentin (1:200), for 90 minutes. The cells were washed in PBS followed by a 1 hour incubation with FITC conjugated anti-mouse secondary (1:30) at room temperature. The cells were mounted with Vectashield containing propidium iodide and sealed to prevent dehydration. The slides were covered in tinfoil and stored at 4° C. for analysis using fluorescence confocal microscopy.

B1: full length recombinant FKBP-L: recombinant full length his-tagged FKBP-L protein (SEQ ID NO: 1) expressed in BL21 (DE3) (protein, listed as Homo sapiens)
chain: MRGSHHHHHHGMASMTGGQQMGRDLYDDDDKDRWGSMETPPVNTIGEKDTSQPQQEWEKNLRENLDSVIQIRQQPRDPPTETLELEVSPDPASQILEHTQGAEKLVAELEGDSHKSHGSTSQMPEALQASDLWYCPDGSFVKKIVIRGHGLDKPKLGSCCRVLALGFPFGSGPPEGWTELTMGVGPWREETWGELIEKCLESMCQGEEAELQLPGHTGPPVGLTLASFTQGRDSWELETSEKEALAREERARGTELFRAGNPEGAARCYGRALRLLLTLPPPGPPERTVLHANLAACQLLLGQPQLAAQSCDRVLEREPGHLKALYRRGVAQAALGNLEKATADLKKVLAIDPKNRAAQEELGKVVIQGKNQDAGLAQGLRKMFG
modifications: His tag
- intermediate filament morphology (anti-vimentin staining): highly disorganized
- microtubule morphology (anti α tubulin staining): little alignment into the wound
